Results as given in article PMC10873595, “Filament structure and subcellular organization of the bacterial intermediate filament–like protein crescentin” (Proceedings of the National Academy of Sciences of the …, 2024).
Where two headings read alike, the source gives them in different places.

T1: CreS-His (full-length CreS followed by GSHHHHHH) (Caulobacter crescentus (vibrioides) …)
T1 chain: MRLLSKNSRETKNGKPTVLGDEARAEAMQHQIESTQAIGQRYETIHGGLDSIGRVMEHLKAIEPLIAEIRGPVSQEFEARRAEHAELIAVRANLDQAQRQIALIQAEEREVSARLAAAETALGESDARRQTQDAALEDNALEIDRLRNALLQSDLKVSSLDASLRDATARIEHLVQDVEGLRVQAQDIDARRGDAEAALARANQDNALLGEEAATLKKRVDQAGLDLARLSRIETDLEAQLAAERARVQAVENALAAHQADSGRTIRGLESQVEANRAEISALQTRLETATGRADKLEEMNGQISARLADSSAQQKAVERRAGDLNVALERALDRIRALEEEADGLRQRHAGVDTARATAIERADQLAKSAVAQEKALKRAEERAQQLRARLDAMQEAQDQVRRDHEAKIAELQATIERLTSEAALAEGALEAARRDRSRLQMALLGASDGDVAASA


How the values were obtained:
[1] = target: T1, CreS-His (full-length CreS followed by …)
[2] = target: T1, CreS-His (full-length CreS followed by …); test: far-Western, overlay or dot blot; cleared lysates of E. coli C41 (DE3) expressing CreS-His variants resolved by SDS-PAGE, blotted, probed with NB13 (7 µg/mL) then α-HA-peroxidase; settings: one partner purified

Binder | binding result [1] | binding result [2]
Megabody MB13 (NB13, YgjK) (VHH) VHH: AHNTESGEMLFTVKKDSLRLSCASSRSIDGINIMRWYRQAPGKQRGMVAVVTGWGSTNYVDSVKGRFIISRDSAKDTVYLQMNNLKPEDTAVYSCNAIYRGSEYWGQGTQVTVSS | binds | 
nanobody 13 (NB13) (VHH, camelid nanobody raised against purified CreSwt; also called CreS-specific nanobody; clone No. 13; source: E. coli WK6, periplasmic extract, purified (HisTrap); not shown: HA, C-terminal, kept) VHH: QVQLQESGGGLVQTGGSLRLSCASSRSIDGINIMRWYRQAPGKQRGMVAVVTGWGSTNYVDSVKGRFIISRDSAKDTVYLQMNNLKPEDTAVYSCNAIYRGSEYWGQGTQVTVSS |  | binds
